Assay: yeast display, Sf9 membrane polyspecificity reagent, FACS + sequencing; frameworks hold sequencing errors
Summary of the method: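 Polyreactivity labels are assigned by the sorting gate from which each nanobody was recovered. The gates were low and high (top ~1%), set on anti-HA fluorescence for expression and streptavidin fluorescence for reagent binding. Before sorting, galactose-induced (36–48 hours) yeast display cells were stained for 1 hour at 4 °C with 10% biotinylated, detergent-solubilized Sf9 membrane reagent.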

Row | Sequence | polyreactivity (PSR sort gate)
1 | QVQLVESGGGLVQAGGSLRLSCAASGYTFYGYAMGWYRQAPGKERELVAAISGSGGSTYYADSVKGRFTISRDNAKNTVYLQMNSLKPEDTAFYYCNKARYAIYRGDGYDYWGQGTQVTVSS | high polyreactivity
2 | QVQLVESGGGLVQAVGSLRLSCAASVFIFPYYDMGWYRQAPGKEREFVAAITKSGGRTYYADSVKGRFTISRDNAKNTVYLHMNSLKPEDTAVYYCNADDPDYLVSYRYDYWGLGTQVTVSS | low polyreactivity
3 | QVQLVESGGGLVQAGGSLRISCAASGLTFNAYAMGWYRQAPGKERELLADITTSDGSTFYADSVKGRFTISRDKATNTVYLQMNSLKPEDTAVYYCNADAYGWYSGPWFKWLLWYDYWGQGTQVTVSS | low polyreactivity
4 | QVQLVESGGCLVQAGGSLRLSCAASGSIFDVNAMGLYRQAPGKERELVAAISDSGGSTYYADSVKGRFTISRDNAKNTVYLQMNSLKPEDTAVYYCNADWSLYNYYDFDYWGQGTQVTVSS | low polyreactivity
5 | QVQLVESGGGLVQAGGSLRLSCAASGSTFRKYAMGWYRQAPGTEREFVAAITWSTGTTYYADSVKGRFTISRDNAKNTVYLQMNSLKPEDTAVYYCAADSQPPHELYESIEHESWGQGTQVTVSS | low polyreactivity
6 | QVQLVESGGGLVQAGGSLRLSSAASGRIFGTYAMGWYRQAPGKERELVAAITSGGRTYYADSVKGRFTISRDNAKNTVYLQMNSLKPEDNAVYYCARPSGYRKYYYWGQGTQVTVSS | high polyreactivity
7 | QVQLVESGGGLVQAGGSLRLSCAASGRIFRQNVMGWYRQAPGKERELVAGISRSGSGTRYADSVKGRFTISRDNAKNTVYLQMNSLKPEDTAVYYCNTLVPFSTWRYGYWGQGTQVTVSS | high polyreactivity
8 | PVQLVESGGGLVQAGGSHRVICAASGRIFYVDAMGWSTQAPGKERELVADMSRGGSTNYADSVKGRFTISRDNAKKTVYLQMNRLKPEDTSVYYCNTDGLWSAEYDYWGQGTQVTVSS | low polyreactivity
9 | QVQLVESGGGLVHAGGSLRLSCAPSGSNFCFNAMGWYRQAPGKERELVAAIPSRGGSTYYADSVKGRFTISRDNAKNTVYLQMNSLKPEDTAVYYCNADHRDTFIWVGLPHMDYWGQGTQVTVSS | low polyreactivity
10 | QVQLVESGGGLVKAGGSLRLSCAASGSIFGRYAMGWYRQAPGKERELVAAISSGGRTYADSVKGRFTISRDNAKNTVYLQMNSLNPEDTAVYYCNARYDGRNSVGPYLGYNYWGQGTQVTVSS | high polyreactivity
11 | QVQLEESGGGLVQAGGSLRLSCAASGSTFTEYVMGWYRHATGKERELVAAIRSNGGSTYYADSVKGRFTISRDNAKNTVYLQMHSLNPEDTAVYYCNRVYSRRTYNSPLYDDWGQGTQVTVSS | high polyreactivity
12 | QVQLVESGGGLVQAGGSLRLSCAASGIIFRGYVMGWYRQAPGKERELVAAISRSGGRTYYADSVKGRFTISRDNAKNTVYLQMNSLKPEDTAVYYCNAVRYVLGYSYDYNYWGQGTQVTVSS | high polyreactivity
13 | QFQLVESGGGLVQAGGSLRLSCAASGSTFTPNVMGWYRQAPGKERELVAAINSSGGSTFYADSVKGRFTISRDNAKNTVYLQMNSLNPEDTAVYYCAASWHTPTVYDEYYYWGQGTQVTVSS | low polyreactivity
14 | QVQLVESGGGLVQAGGILRLSCAASGSIFVGNAMGGYRQAPGKERELVATISWSGGSTYYADSVKGRFTISRDNAKNTVYLQMNCLKPEDSAVYYCAKTPYRRYRYGGYTYRTYDYWGQGTQVTVSS | low polyreactivity
15 | QVQLVESGGGLVQAGGSLRLSCAASGFISVRNAMGWYRQAPGKERELVAAISSGDTTDYADSVKGRFTISRDNAKNTVYLQMISLKPEDTAVYYCAAVYYGRYYYWGQGTQVTVSS | low polyreactivity
16 | QVQLVESGGGLVQAGGSLRLSCAASGFTFTRYAMGWYRQAPGKERELVAAITTNSGSRTYYADSVKGRFTISRDNAKNTVYLQMNSLKPEDTAVYYCAADGPVVRGYYWGQGTQVTVSS | high polyreactivity
17 | QVQLVESGGGLVQAGGSLRFSCAASGSIFDIYGMGWYRQAPGKESELVASISGGAGSTNYADSVKGRFTISRDYAKNTVYLQMNSLKPEDTAVYYCAAVCADPTEYDYWGQGTQVTVSS | low polyreactivity
18 | QVQLVESGGGLVQAGGSLRLSCAASGSIFSPYAMGWYRQAPGKERELVATITWSGGSTYYADSVKGRFTISRDNAKNTVYLQMNSLKPEDTAVYYCAATRSGYTSYTDDSWGQGTQVTVSS | high polyreactivity
19 | QVQLVESGGGLVQSGGSLRLSSASSGRTFSGYVMGWYRQAPGKEREFVAVISRGGSTYYADSVKGRFTISRDNAKNTVYLQMNSLKPEDTAVYYCAGRLTYTGGQGAYDYWGQGTQVTVSS | high polyreactivity
20 | QVQIVESGGGLVQAGGSLRLSCAASGRTYYYAMGWYRQAPGKERELVAAITESGDNTYYADSVKGRFTISRDNAKNTVYLQMNSLKPEDTAVYYCAVDYPSPSYYYEYYYWGQGTQVTVSS | high polyreactivity
21 | QVQLVESGGGLVQAGGSLRLSCAASGRIYYSNVMGWYRQAPGTERELVAAISGRTGGTYYADSVKGRFTISRDNAKNTVYLQMNSLKPEDTAVYYCAARVIYYYGYCTYDYWGQGTQVTVSS | low polyreactivity
22 | QVQLVESGGGLVQAGGSLRLSCAASGSIIYTNAMGWYRQAPGKERELVAAITGTTTTNYADSVKGRFTISRDNAKNTVYLQMNSLKPEDPAVYYCNADYDRSRVYYSVELYDYWGQGTQVTVSS | low polyreactivity

Row | Sequence | polyreactivity (PSR sort gate)
23 | QVQLVESVGGLVQAGGSLRLSCAASGSTFYRYAMGWYRQAPGKERELVAAISSDGTTYYADSVKGRFTISRDNAKNTVYLQLNSLKPEDTAVYYCAKRGYYRSRRYDYWGQGTLVTVSS | high polyreactivity
24 | QVQLVESGGGLVQAGGSLRLSCAASGRIFYHYAMGWYRQAPGKERELVATIRRRGSSTYYADSVKGRFTISRDNAKNTVYLQMNSLKPEDTAVYYCAAGPTTNRYNYWGQGTQVTVSS | high polyreactivity
25 | QVQLVESGGGLVQAGGSLRLSCAASGRIFPTYAMGWYRQAPGKERELVAGITSGGRTNYADSVKGRFTISRDNAKNTVYLQMNSLKPEDTAVYYCATVSQQSRSLGIDRIYYWGQGTQVTVSS | high polyreactivity
26 | QVQLVESGGGLVQAGGSLRLSCASSGLIFKKYTIGWYRQGPGKERELVASISKSGGSTYYADSVKGRFTISRDNAKNTVYLQMNSLNPEDTAVYYCNSVNHYIGFDYWGQGTQVTVSS | low polyreactivity
27 | QVQLVESGGGLVQAGGSLRLSCAASGFTFRTYGMGWYSQAPGKERELVAAISRSSATTYYADSVKGRFTISRDNAKTTVYLQINSLKPEDTAVYYCNAGDLGRRWGMDYSGQGTQVTVSS | low polyreactivity
28 | QVQLVESGGGLVQAGGSLRLSCAASGSTFYIYAMGWYRQSPGKERELVAVITRGGSTYYADSVKGRFTISRDNAKNTVYLQMNSLKPEDTAVYYCAARYWNGTRDTYGSWGQGTQVTVSS | high polyreactivity
29 | QVQLEESGGGLVQAGGSLRLTCAASGRNFTYYAMGWSIQAPGNEREIVAAISSSGGSTSYADSVKGRFTISRDNAKNTVYLQMNSLKPEDTAVYYCAAVTRDYGSRSGLDYWGQGTQVTVSS | high polyreactivity
30 | QVQLVESGGGLVQAGGSLRLSCAASGRIFVDNDMGWYRQAPGKERELVAAISGNGGNTNYADSVKGRFTISRDNAKNTVYLQMNSLKPEDTAVYYCAATYPVGHVYRYDYWGQGTQVTVSS | low polyreactivity
31 | QVQLVESGGGLVQAGGSLRLSFAASGRIFQFYGMGWYRQAPGKEREFVAAITRNGGNTYYADSVKGRYTISRDNAKNTVDLQMNSLKPEDTAVYYCAAANPRDHRGANDYWGQGTQVTVSS | high polyreactivity
32 | QVQLEESGGAFVQAGGSLRLSCAASGFIFVPYSMGWYREAPGKEREFVAAITASGGNTYYADSVKGRFSISRDNAKNTVYLQMNSVKPEDTAVYYCAADISGSLESLDYWGQGTQVTGSS | low polyreactivity
33 | QVQLVESGGGLVQAGGSLRLSCAASGRIFQYNAMGWYRQATGKERELVAAITWSSGSTYYADSVKGRFTISRDNAKNTVYLQMNSLKPEDTAVYYCNTVRVLYYDRQFLFRGSRFGYWGQGTQVTVSS | high polyreactivity
34 | QVQLVESGGGLVQAGGSLSLSCAASGRIFGHNAMGWYRQAPGKERELVATISSGVRTNYADSVKGRFTISRDNAKNTVYLQMNSLKPEDTAVYYCATKTYQFGYSSYYYWGQGTQVTVSS | high polyreactivity
35 | QVQLVESGGGLVQAGGSLRLSCAASGRIFGYYVMGWYRQAPGKERELVAAISRSGGSTYYADSVKGRFTISRDNAKNTVYLQMNSLKPEDTAVYYCAKRVCTYGFSGYDYWGQGTQVTVSS | high polyreactivity
36 | QVQLVESGGGLVQAGGSLRLSCPASGSIFDVYTMGWYRQAPGKEMELVAAINTGGGSTYYADSVKGRFTISRDTAKNTVYLQMYSMKPEDTAVYSCAKEVSPYWTFDYWGQGTQVTVSS | low polyreactivity
37 | QVQLVESGGGLVQAGGSLRLSCAASGYTFYTNAMGWYIQAPGKERELVASIRSRGRSTYYADSVKGRFTISRDNAKNTVYLQMNSLKPEDTAVFYCAALPNIPAVYAYDYWGQGTQVTVSS | low polyreactivity
38 | QVQLVESAGGLVHAGGSLRLSCADSGSTIGDNAMGWYRQAPGKEREFVASISWSGASTYYADSVKGRFTISRDNAKNTVYLQMNSLKPEDTAVYFCAVYYSYYSHLYHLLFYYWGQATQVTVSS | low polyreactivity
39 | QVQLVESGGGLVQAGGSLRLSCAASGSILSAYDMGLYRKAPGKDRELVAAIHSSGGSTYYADSVKGRFTISRDNAKNTVYLQMNSLKPEDTAVYYCAATSLAGYYQFDYWGQGTQVTVSS | low polyreactivity
40 | QVQLVESGGGLVQAGGSLRLSCAASGFIFEYYAMGWYRQAPGKERELVAAISSSGGSTYYADSVKGRFTISRDNAKITVYLQINSLKPEDTAVYYCAKDYAPSAKKLHYWGQGTQVTVSS | low polyreactivity
41 | KVQLQESGGGLVQAGGSLRPSCAASGSITDGVPMGWDRQAPGEERELVATTVLGATTNYADSVKGRFTISRGNAKNTVYLLMNSLKPEETAVYYCAAPLRYDKGFSYWRQGTQVTVSS | low polyreactivity
42 | QVQLVESGGGLVQAGGSLRLSCAASGITFYIYAMGWYRQAPGKERELVATISWSDGRTYYADSVKGRITISRDNAKNTVYLQMNSLKPEDTAVYYCAADWWYYQFDYEYWGQGTQVTVSS | low polyreactivity
43 | QVQLVESGGGLVQAGGSLRLSCGASGGFFYFNAMGRYRQAPGKEREVVASITWSGGNTYYADSVKGRFTISRDNAKHTVDLQMNSLTPEDTAVYYCAADTLEYRPTYDYWGQGTQVTVSS | low polyreactivity

— the nanobody polyreactivity screen of Harvey et al. (2022)
